53 sequences from the Immune Epitope Database (IEDB) can be followed below.

Assay in all cases: IEDB peptide-MHC binding, purified MHC/competitive/radioactivity; filed as Kd, often an IC50 or EC50 that approximates it; ≥ and ≤ were set here for values at or beyond the usual limits of such assays
Assay [1] addresses HLA-B*08:01.
The target in assay [2] is HLA-A*30:01.
Assay [3] has as its target HLA-A*68:01.
In assay [4] the target is HLA-A*33:01.
Assay [5] deals with HLA-A*03:01.
Assay [6] concerns the target HLA-A*31:01.
Assay [7] has as its target HLA-A*26:01.
Assay [8] addresses HLA-B*53:01.
Assay [9] addresses HLA-A*30:02.
In assay [10] the target is HLA-A*32:01.
Assay [11] addresses HLA-A*01:01.
Assay [12] has as its target HLA-A*29:02.
Assay [13] has as its target HLA-A*24:02. Conditions: source organism: SARS coronavirus Tor2.
The target in assay [14] is HLA-A*23:01.
Assay [15] has as its target HLA-A*11:01.
The mark [16] stands for this setting: source organism: Mammarenavirus choriomeningitidis.
Setting [17] is: source organism: Vaccinia virus WR.
The mark [18] stands for this setting: source organism: Dengue virus 1 Brazil/97-11/1997.
The mark [19] stands for this setting: source organism: Dengue virus 2 Jamaica/1409/1983.
The mark [20] stands for this setting: source organism: Vaccinia virus Copenhagen.
[21] abbreviates: source organism: Mammarenavirus juninense.
Setting [22] is: source organism: Mammarenavirus tacaribeense.
[23] abbreviates: source organism: Dengue virus 4 Philippines/H241/1956.
[24] abbreviates: source organism: SARS coronavirus Tor2.
Setting [25] is: source organism: Dengue virus 4 Dominica/814669/1981.
Setting [26] is: source organism: Dengue virus 3 Martinique/1243/1999.
Setting [27] is: source organism: Mammarenavirus brazilense.

With LLQMENKAWL, the Kd in [1] (source organism: Dengue virus 2 16681-PDK53) was 280 nM.
For the sequence LVSFLLLAGR, the Kd in assay [2] (setting [16]) is 9510 nM; in assay [3] (setting [16]) it was 36.4 nM; in assay [4] (setting [16]), 151 nM; in [5] (setting [16]), 803 nM; in [6] (setting [16]) it was 9.28 nM.
RTKIPLSKV: the Kd in [2] (setting [17]) is 4.13 nM.
With FCSHHFHQL, the Kd in assay [1] (setting [18]) is 178 nM.
As to MTTEDMLSVW, the Kd in [7] (setting [18]) is 2090 nM; in assay [8] (setting [18]), 856 nM.
Regarding VRQMEGEGVL, the Kd in [1] (source organism: Dengue virus 3 Sri Lanka/1266/2000) is 1710 nM.
As for RARISQGAG, the Kd in assay [2] (setting [19]) is 126 nM.
As for FRYVFFEII, the Kd in assay [1] (setting [20]) came to 208 nM.
On to RLKTRIRNL, for which the Kd in assay [1] (setting [17]) worked out at 0.694 nM.
Turning to ASAHVRQSEY, the equilibrium dissociation constant (Kd) is 5.79 nM in assay [9] (setting [21]); 827 nM in assay [10] (setting [21]); 4.53 nM in assay [11] (setting [21]); 2730 nM in assay [2] (setting [21]); no less than 24700 nM in assay [7] (setting [21]); 102 nM in [12] (setting [21]).
As to KKMIRPQPME, the Kd in assay [2] (setting [18]) came to 8740 nM.
For the sequence FPRSMLSIF, the Kd in assay [1] (setting [17]) was 9.88 nM.
FVAAALHNV: the Kd was no less than 76900 nM in assay [9] (setting [22]); no less than 77800 nM in assay [10] (setting [22]); no less than 20500 nM in assay [11] (setting [22]); 6100 nM in assay [2] (setting [22]); 2540 nM in assay [7] (setting [22]); 13500 nM in [12] (setting [22]).
Turning to LTEIASLPTY, the Kd stood at 226 nM in assay [9] (setting [23]), 1.39 nM in [11] (setting [23]), 9340 nM in [2] (setting [23]) and 899 nM in assay [7] (setting [23]).
Regarding SINVKHTSV, the dissociation constant (Kd) in assay [1] (setting [17]) was 13.3 nM.
Regarding FPQSNAVIQ, the Kd in assay [8] (setting [18]) was 527 nM.
Consider KSAQCFKMFY, for which the Kd was no less than 21200 nM in assay [9] (setting [24]); no less than 89300 nM in assay [11] (setting [24]); no less than 86900 nM in assay [7] (setting [24]); 1450 nM in [3] (setting [24]); 753 nM in assay [4] (setting [24]); 75.3 nM in assay [12] (setting [24]). Further, the Kd in assay [5] (setting [24]) was found to be 5060 nM; in assay [13] it was 4700 nM; in [6] (setting [24]) it was 629 nM; in assay [14] (setting [24]) it was 5090 nM; in [15] (setting [24]), 2250 nM.
Take ATREAQKRA: the Kd in assay [2] (setting [19]) came to 27.4 nM.
As for NPSFKRQII, the Kd in assay [1] (setting [17]) was 19.5 nM.
MFFIRFGKM: the Kd in assay [1] (setting [17]) stood at 31.9 nM.
Regarding ASRRSWPLN, the Kd in assay [2] (setting [25]) was determined as 50.2 nM.
For the sequence TPELEEEMF, the Kd in assay [8] (setting [26]) was 1970 nM.
With YNKQSLVSL, the Kd in [1] (setting [17]) was 30.1 nM.
For SPLSKCVVV, the Kd in assay [1] (setting [17]) came to 30.9 nM.
For ITVSGLYPLA, the Kd in assay [2] (setting [23]) was found to be 462 nM.
On to KITAEWLWK, for which the results for the Kd in assay [2] (setting [19]), in [5] (setting [19]) and in assay [15] (setting [19]) were 536 nM, 99.4 nM and 1440 nM, respectively.
In the case of KNKIPFLLL, in [2] (setting [17]), the Kd is 92.4 nM.
QYIFTGQPLN: the Kd in assay [2] (setting [26]) worked out at 8840 nM.
In the case of LATGPLTTLW, in assay [8] (setting [18]), the Kd turned out to be 98.4 nM.
For the sequence KTDFSNIRA, in [2] (setting [20]), the Kd worked out at 209 nM.
As for TFIRSTMPLV, in [2] (setting [23]), the Kd was found to be 257 nM.
Regarding MGLGKGWPL, in assay [1] (setting [19]), the Kd was determined as 8.72 nM.
Regarding KYSRSKPAA, the Kd in [2] (setting [17]) is 5.71 nM.
Regarding RMVMTTTANW, the results for the dissociation constant (Kd) in assay [14] (setting [23]) and in [8] (setting [23]) were 52.8 nM and 20.5 nM, respectively.
LATGPITTLW: the Kd in assay [8] (setting [26]) turned out to be 78.6 nM.
Turning to ALLSRFFNM, the Kd in assay [1] (setting [17]) stood at 2.96 nM.
For the sequence MVKPKGKVV, the equilibrium dissociation constant (Kd) in [1] (setting [23]) amounted to 44.6 nM.
Turning to LLKLGFEEI, in assay [1] (setting [17]), the Kd was 510 nM.
LKGMSYAMCL: the equilibrium dissociation constant (Kd) in assay [1] (source organism: Dengue virus 3 Singapore/8120/1995) stood at 438 nM.
Regarding SNKRKVLAI, in [1] (setting [17]), the Kd stood at 1.85 nM.
Consider MIDNQKLSY, for which the Kd in [9] (setting [27]) is 843 nM; in assay [10] (setting [27]) it was no less than 61200 nM; in assay [11] (setting [27]), 9.61 nM; in [2] (setting [27]), no less than 34600 nM; in assay [7] (setting [27]) it was no less than 34700 nM; in assay [12] (setting [27]), 106 nM.
With AFKNKRLVF, the Kd in assay [1] (setting [17]) was determined as 1560 nM.
On to NRRRRTAGV, for which, in assay [1] (setting [19]), the Kd amounted to 121 nM.
As to MMKWIISIL, the Kd in [1] (setting [17]) stood at 1.28 nM.
On to RADRVIDPRR, for which the Kd in assay [2] (setting [18]) came to 1930 nM.
With LMLVALLGAM, in [1] (setting [23]), the Kd is 7190 nM.
For the sequence DTVTYKCPLL, the Kd in assay [2] (setting [25]) was found to be 3080 nM.
KPAVRFAIL: the Kd in assay [1] (setting [17]) stood at 1430 nM.
Consider HLRVLFSIF, for which, in assay [1] (setting [17]), the Kd was found to be 4.66 nM.
Consider RTRNALDNL, for which the Kd in [2] (setting [26]) worked out at 3.33 nM.
For TTRNGEPHM, in assay [2] (setting [19]), the Kd is 1200 nM.
In the case of GIFMTATPPG, in assay [2] (setting [19]), the Kd came out at 1220 nM.
As for AARDRQFEK, in assay [2] (setting [17]), the Kd came to 104 nM.

What is called Kd is the free concentration of one partner at which half of the binding sites on the other are occupied at equilibrium, for simple one-to-one binding.
